This passage reports Kd results from the Immune Epitope Database (IEDB).

Some targets named below: HLA-A*02:02; HLA-A*02:03; HLA-A*02:06; HLA-A*03:01; HLA-A*11:01; HLA-A*31:01; HLA-A*33:01; HLA-A*68:01.
Holding throughout (assay): IEDB peptide-MHC binding, purified MHC/competitive/radioactivity; filed as Kd, often an IC50 or EC50 that approximates it; ≥ and ≤ were set here for values at or beyond the usual limits of such assays
[1] abbreviates: source organism: Vaccinia virus WR.
[2] abbreviates: source organism: Lymphocytic choriomeningitis virus (strain Armstrong).
The mark [3] stands for this setting: source organism: Dengue virus 1 Brazil/97-11/1997.
Where [4] appears, read: source organism: Dengue virus 4 Philippines/H241/1956.
The mark [5] stands for this setting: source organism: Lassa virus Josiah.
The mark [6] stands for this setting: source organism: Mammarenavirus guanaritoense.
The mark [7] stands for this setting: source organism: SARS coronavirus Tor2.
[8] abbreviates: source organism: Mammarenavirus juninense.

Take NIVTDLENRL: the results for the Kd with HLA-A*02:02 (setting [1]), in the experiment with HLA-A*02:03 (setting [1]) and in the experiment with HLA-A*02:06 (setting [1]) were 261 nM, 17600 nM and 1550 nM, respectively.
Regarding NMDKVSAQNI, the values for the Kd with HLA-A*02:02 (setting [1]), with HLA-A*02:03 (setting [1]) and with HLA-A*02:06 (setting [1]) were 8020 nM, 16800 nM and at least 69800 nM, respectively.
Turning to NSLILLECFV, the Kd (usually the equilibrium constant for the complex coming apart) with HLA-A*02:02 (setting [2]) came to 1.21 nM; with HLA-A*02:03 (setting [2]), 46.6 nM; with HLA-A*02:06 (setting [2]), 4.17 nM.
With PASISSVLT, the Kd with HLA-A*02:02 (setting [1]) turned out to be 1380 nM; with HLA-A*02:03 (setting [1]), 1360 nM; in the experiment with HLA-A*02:06 (setting [1]), 1490 nM.
PQDNQLAYV: the Kd with HLA-A*02:06 (setting [3]) was 166 nM.
In the case of PTILATLNTL, the Kd was found to be 374 nM in the experiment with HLA-A*02:02 (setting [1]), 130 nM with HLA-A*02:03 (setting [1]) and 771 nM with HLA-A*02:06 (setting [1]).
As for QLMYDIINSV, the Kd amounted to 1.87 nM in the experiment with HLA-A*02:02 (setting [1]), 0.139 nM with HLA-A*02:03 (setting [1]) and 5.61 nM with HLA-A*02:06 (setting [1]).
The corresponding values for QQLCTMERT are at least 77800 nM, 4520 nM and 929 nM.
Consider RLATAIAGA, for which, in the experiment with HLA-A*02:03 (source organism: Dengue virus 3 Martinique/1243/1999), the Kd stood at 11.5 nM.
RQQLEDIFM: the Kd was 5730 nM with HLA-A*02:02 (setting [1]), at least 26900 nM with HLA-A*02:03 (setting [1]) and 944 nM with HLA-A*02:06 (setting [1]).
As for RTTWAFCEV, the Kd in the experiment with HLA-A*02:06 (setting [4]) was determined as 23.1 nM.
As to RVFKKIMSI, the figures for the Kd in the experiment with HLA-A*02:02 (setting [1]), in the experiment with HLA-A*02:03 (setting [1]) and in the experiment with HLA-A*02:06 (setting [1]) were 350 nM, 0.18 nM and 75.2 nM, respectively.
As for RVNDLNRMPT, the Kd with HLA-A*02:02 (setting [1]) was 1360 nM; with HLA-A*02:03 (setting [1]), 1440 nM; with HLA-A*02:06 (setting [1]) it was 7720 nM.
For RVNHAKYMVT, the Kd with HLA-A*02:02 (setting [1]) is at least 33600 nM; with HLA-A*02:03 (setting [1]), 1050 nM; with HLA-A*02:06 (setting [1]), 9330 nM.
With SIINHKFCNL, the Kd with HLA-A*02:02 (setting [5]) was 247 nM; in the experiment with HLA-A*02:03 (setting [5]), 562 nM; in the experiment with HLA-A*02:06 (setting [5]) it was 1010 nM.
Take SIPISELSRL: the Kd with HLA-A*02:02 (setting [1]) worked out at 252 nM; with HLA-A*02:03 (setting [1]), 60.6 nM; in the experiment with HLA-A*02:06 (setting [1]), 78.2 nM.
On the same counts, the results for SLVYGIRCV are 2940 nM, 3.83 nM and 168 nM.
For SVSGDLILEI, the Kd in the experiment with HLA-A*02:06 (setting [3]) turned out to be 89.1 nM.
For TNFESFTVK, the Kd with HLA-A*03:01 (setting [6]) is 365 nM; in the experiment with HLA-A*11:01 (setting [6]), 1440 nM; with HLA-A*31:01 (setting [6]), 270 nM; with HLA-A*33:01 (setting [6]) it was at least 77700 nM; with HLA-A*68:01 (setting [6]), 24.3 nM.
As for TQSRDLEDFK, the Kd with HLA-A*03:01 (setting [7]) is 19300 nM; with HLA-A*11:01 (setting [7]), 12500 nM; with HLA-A*31:01 (setting [7]), 14600 nM; with HLA-A*33:01 (setting [7]), at least 70000 nM; with HLA-A*68:01 (setting [7]), at least 29000 nM.
As for TVFFTASLFL, the Kd is 1330 nM with HLA-A*03:01 (setting [8]); 482 nM with HLA-A*11:01 (setting [8]); 7220 nM with HLA-A*31:01 (setting [8]); at least 70000 nM with HLA-A*33:01 (setting [8]); 901 nM in the experiment with HLA-A*68:01 (setting [8]).
For VADLSARNK, the Kd was found to be 214 nM in the experiment with HLA-A*03:01 (setting [1]); 153 nM in the experiment with HLA-A*11:01 (setting [1]); 3030 nM with HLA-A*31:01 (setting [1]); 11700 nM in the experiment with HLA-A*33:01 (setting [1]); 1120 nM with HLA-A*68:01 (setting [1]).
In the case of VAFELWAKR, the Kd in the experiment with HLA-A*03:01 (setting [7]) turned out to be 9440 nM; with HLA-A*11:01 (setting [7]), 3270 nM; with HLA-A*31:01 (setting [7]), 76.9 nM; in the experiment with HLA-A*33:01 (setting [7]), 52 nM; with HLA-A*68:01 (setting [7]), 23.4 nM.
Turning to VFKDSFLRK, the Kd turned out to be 322 nM in the experiment with HLA-A*03:01 (setting [1]); 216 nM with HLA-A*11:01 (setting [1]); 154 nM with HLA-A*31:01 (setting [1]); 1880 nM with HLA-A*33:01 (setting [1]); 776 nM in the experiment with HLA-A*68:01 (setting [1]).
On the same counts, the results for VIILAALFMY are 2660 nM, 449 nM, at least 70000 nM, at least 70000 nM and at least 51800 nM.
For VILQNAWKV, the Kd with HLA-A*02:06 (source organism: Dengue virus 2 Jamaica/1409/1983) worked out at 4.45 nM.
As to VLDMCAALK, the Kd in the experiment with HLA-A*03:01 (setting [7]) stood at 17.6 nM; with HLA-A*11:01 (setting [7]), 44.9 nM; in the experiment with HLA-A*31:01 (setting [7]), 2350 nM; with HLA-A*33:01 (setting [7]) it was 13600 nM; with HLA-A*68:01 (setting [7]) it was 2520 nM.
As for VLFVKKMLPK, the Kd with HLA-A*03:01 (setting [1]) was determined as 7.21 nM; with HLA-A*11:01 (setting [1]) it was 12 nM; with HLA-A*31:01 (setting [1]) it was 1730 nM; in the experiment with HLA-A*33:01 (setting [1]) it was 13500 nM; in the experiment with HLA-A*68:01 (setting [1]), 2350 nM.
The corresponding values for WIKDIMTSTR are 2200 nM, at least 21200 nM, 301 nM, 64 nM and 22.7 nM.
Regarding WVLAYMLFTK, the Kd came out at 24 nM in the experiment with HLA-A*03:01 (setting [7]); 32.7 nM with HLA-A*11:01 (setting [7]); 1260 nM in the experiment with HLA-A*31:01 (setting [7]); 3950 nM with HLA-A*33:01 (setting [7]); 104 nM with HLA-A*68:01 (setting [7]).
Consider YLSSRAKLA, for which the Kd with HLA-A*02:03 (setting [4]) was found to be 36 nM.
